According to publication PMC2978023 (Journal of immunology (Baltimore, Md. : 1950), 2008):

B1: plasmin (protein, UniProt P00747 20-580; P00747 581-810, looked up)
Plasmin heavy chain A: EPLDDYVNTQGASLFSVTKKQLGAGSIEECAAKCEEDEEFTCRAFQYHSKEQQCVIMAENRKSSIIIRMRDVVLFEKKVYLSECKTGNGKNYRGTMSKTKNGITCQKWSSTSPHRPRFSPATHPSEGLEENYCRNPDNDPQGPWCYTTDPEKRYDYCDILECEEECMHCSGENYDGKISKTMSGLECQAWDSQSPHAHGYIPSKFPNKNLKKNYCRNPDRELRPWCFTTDPNKRWELCDIPRCTTPPPSSGPTYQCLKGTGENYRGNVAVTVSGHTCQHWSAQTPHTHNRTPENFPCKNLDENYCRNPDGKRAPWCHTTNSQVRWEYCKIPSCDSSPVSTEQLAPTAPPELTPVVQDCYHGDGQSYRGTSSTTTTGKKCQSWSSMTPHRHQKTPENYPNAGLTMNYCRNPDADKGPWCFTTDPSVRWEYCNLKKCSGTEASVVAPPPVVLLPDVETPSEEDCMFGNGKGYRGKRATTVTGTPCQDWAAQEPHRHSIFTPETNPRAGLEKNYCRNPDGDVGGPWCYTTNPRKLYDYCDVPQCAAPSFDCGKPQVEPKKCPGR
Plasmin light chain B: VVGGCVAHPHSWPWQVSLRTRFGMHFCGGTLISPEWVLTAAHCLEKSPRPSSYKVILGAHQEVNLEPHVQEIEVSRLFLEPTRKDIALLKLSSPAVITDKVIPACLPSPNYVVADRTECFITGWGETQGTFGAGLLKEAQLPVIENKVCNRYEFLNGRVQSTELCAGHLAGGTDSCQGDSGGPLVCFEKDKYILQGVTSWGLGCARPNKPGVYVRVSRFVTWIEGVMRNN
modifications: Plasmin
B2: Fas ligand: promotes PMN death via interaction with its receptor on the cell surface (protein, UniProt P48023 130-281, looked up)
Tumor necrosis factor ligand …: QIGHPSPPPEKKELRKVAHLTGKSNSRSMPLEWEDTYGIVLLSGVKYKKGGLVINETGLYFVYSKVYFRGQSCNNLPLSHKVYMRNSKYPQDLVMMEGKMMSYCTTGQMWARSSYLGAVFNLTSADHLYVNVSELSLVNFEESQTFFGLYKL

Key:
monocytes = settings: PAR-1-dependent; ref [29]; cited from earlier work
human PMNs = settings: PMN; data not shown
PMN = settings: cited from earlier work

| Molecule | effect on TNF-α-induced apoptosis in monocytes (monocytes) | prosurvival/cytoprotective effect on PMN (in words) (human PMNs) | effect on PMN death (PMN) |
| --- | --- | --- | --- |
| B1 | inhibits TNF-α-induced apoptosis in monocytes | did not exert a cytoprotective function | – |
| B2 | – | – | promote PMN death |
